Experimental data reported in PMC9482650, “Quantitative fragmentomics allow affinity mapping of interactomes” (Nature Communications, 2022).

Columns and labels:
Test in all cases: holdup assay
Parameters in all cases: key: below the threshold = too weak to quantify, mostly under pKd 3.1 to 4
APBA2_1, Q99767 = target: T1, APBA2_1, Q99767
T1 sequence (Q99767 563-664, limits assumed, looked up): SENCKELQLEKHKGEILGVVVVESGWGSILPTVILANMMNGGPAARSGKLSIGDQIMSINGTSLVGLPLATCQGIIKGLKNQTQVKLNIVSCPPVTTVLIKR

APBA2_2, Q99767 = target: T2, APBA2_2, Q99767
T2 sequence (Q99767 654-744, limits assumed, looked up): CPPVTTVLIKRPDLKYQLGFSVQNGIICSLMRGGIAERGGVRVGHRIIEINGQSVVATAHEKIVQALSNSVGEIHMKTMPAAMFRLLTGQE

ARHGEF11, O15085 = target: T3, ARHGEF11, O15085
T3 sequence (O15085 42-136, limits assumed, looked up): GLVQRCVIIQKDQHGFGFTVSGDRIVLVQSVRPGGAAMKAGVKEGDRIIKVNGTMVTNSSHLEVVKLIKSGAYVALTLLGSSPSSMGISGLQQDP

DFNB31_2, Q9P202 = target: T4, DFNB31_2, Q9P202
T4 sequence (Q9P202 274-371, limits assumed, looked up): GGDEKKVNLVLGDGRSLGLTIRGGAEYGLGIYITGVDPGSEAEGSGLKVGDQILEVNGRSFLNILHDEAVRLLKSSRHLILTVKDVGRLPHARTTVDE

DLG1_1, Q12959 = target: DLG1_1, Q12959
DLG5_1, Q8TDM6 = target: DLG5_1, Q8TDM6
DVL3, Q92997 = target: T5, DVL3, Q92997
T5 sequence (Q92997 244-331, limits assumed, looked up): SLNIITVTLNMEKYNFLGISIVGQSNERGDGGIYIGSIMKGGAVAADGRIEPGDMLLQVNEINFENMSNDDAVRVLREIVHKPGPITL

GRASP, Q7Z6J2 = target: GRASP, Q7Z6J2
GRIP2_3, Q9C0E4 = target: GRIP2_3, Q9C0E4
GRIP2_6, Q9C0E4 = target: GRIP2_6, Q9C0E4
HTRA1, Q92743 = target: HTRA1, Q92743
IL16_3, Q14005 = target: IL16_3, Q14005
IL16_4, Q14005 = target: IL16_4, Q14005
LIMK2, P53671 = target: LIMK2, P53671
LNX2_3, Q8N448 = target: T6, LNX2_3, Q8N448
T6 sequence (Q8N448 463-564, limits assumed, looked up): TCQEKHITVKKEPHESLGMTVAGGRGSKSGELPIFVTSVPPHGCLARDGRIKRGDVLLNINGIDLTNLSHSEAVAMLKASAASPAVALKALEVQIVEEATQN

MPDZ_10, O75970 = target: T7, MPDZ_10, O75970
T7 sequence (O75970 1624-1722, limits assumed, looked up): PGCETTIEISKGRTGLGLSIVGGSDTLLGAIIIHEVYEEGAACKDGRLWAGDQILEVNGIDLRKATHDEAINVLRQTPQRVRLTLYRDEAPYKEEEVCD

MPP6, Q9NZW5 = target: T8, MPP6, Q9NZW5
T8 sequence (Q9NZW5 125-219, limits assumed, looked up): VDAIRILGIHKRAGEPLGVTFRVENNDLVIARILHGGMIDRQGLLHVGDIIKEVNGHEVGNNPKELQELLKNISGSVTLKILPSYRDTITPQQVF

NHERF4_1, Q86UT5-2 = target: NHERF4_1, Q86UT5-2
PDZD2_2, O15018 = target: T9, PDZD2_2, O15018
T9 sequence (O15018 329-429, limits assumed, looked up): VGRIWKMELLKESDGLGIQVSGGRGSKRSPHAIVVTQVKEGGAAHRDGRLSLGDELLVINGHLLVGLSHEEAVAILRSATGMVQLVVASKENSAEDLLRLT

RAPGEF6, Q8TEU7 = target: T10, RAPGEF6, Q8TEU7
T10 sequence (Q8TEU7 525-625, limits assumed, looked up): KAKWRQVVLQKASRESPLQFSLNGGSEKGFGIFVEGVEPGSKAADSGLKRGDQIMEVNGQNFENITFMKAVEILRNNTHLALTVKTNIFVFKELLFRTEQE

SCRIB_2, Q14160 = target: SCRIB_2, Q14160
SCRIB_3, Q14160 = target: SCRIB_3, Q14160
SNTB1, Q13884 = target: T11, SNTB1, Q13884
T11 sequence (Q13884 107-205, limits assumed, looked up): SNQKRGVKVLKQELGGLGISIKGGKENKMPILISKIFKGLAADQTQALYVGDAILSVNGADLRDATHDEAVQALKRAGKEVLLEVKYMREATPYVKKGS

SNX27, Q96L92 = target: SNX27, Q96L92
TJP1_2, Q07157 = target: TJP1_2, Q07157
TJP2_1, Q9UDY2 = target: TJP2_1, Q9UDY2
[1] = plain residues with an end cap or a label only (N-terminal biotin on a linker: ado-ado)
[2] = plain residues with an end cap or a label only (N-terminal biotin on a linker: ttds)

NHERF4_1, Q86UT5-2, sequence (Q86UT5 other isoform, or with tags, fused parts or gaps): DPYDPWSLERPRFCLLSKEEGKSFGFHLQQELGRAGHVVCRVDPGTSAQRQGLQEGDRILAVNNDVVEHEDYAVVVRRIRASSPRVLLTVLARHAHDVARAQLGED
IL16_3, Q14005, sequence (Q14005 1107-1207): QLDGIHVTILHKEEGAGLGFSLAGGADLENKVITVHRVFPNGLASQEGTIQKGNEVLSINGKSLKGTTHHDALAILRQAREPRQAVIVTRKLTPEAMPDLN
GRASP, Q7Z6J2, sequence (Q7Z6J2 96-193): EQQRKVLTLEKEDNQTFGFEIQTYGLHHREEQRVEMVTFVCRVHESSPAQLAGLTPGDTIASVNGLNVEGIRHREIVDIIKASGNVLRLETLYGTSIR
GRIP2_3, Q9C0E4, sequence (Q9C0E4 238-339): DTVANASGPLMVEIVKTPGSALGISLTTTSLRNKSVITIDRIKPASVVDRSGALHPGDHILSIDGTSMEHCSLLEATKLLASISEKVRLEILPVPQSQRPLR
DLG5_1, Q8TDM6, sequence (Q8TDM6 617-713): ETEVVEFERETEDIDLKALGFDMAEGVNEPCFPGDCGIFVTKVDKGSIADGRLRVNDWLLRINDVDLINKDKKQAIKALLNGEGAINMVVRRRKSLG
TJP2_1, Q9UDY2, sequence (Q9UDY2 24-128): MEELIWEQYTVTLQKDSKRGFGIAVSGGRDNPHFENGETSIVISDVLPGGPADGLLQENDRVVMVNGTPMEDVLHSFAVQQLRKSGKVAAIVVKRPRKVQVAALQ
TJP1_2, Q07157, sequence (Q07157 181-274): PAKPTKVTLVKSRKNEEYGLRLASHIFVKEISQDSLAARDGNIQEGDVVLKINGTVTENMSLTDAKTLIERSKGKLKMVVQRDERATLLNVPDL
LIMK2, P53671, sequence (P53671 143-248): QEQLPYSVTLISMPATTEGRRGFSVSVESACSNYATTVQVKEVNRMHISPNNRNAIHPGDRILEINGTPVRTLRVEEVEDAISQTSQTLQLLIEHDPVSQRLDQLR
IL16_4, Q14005, sequence (Q14005 1229-1329): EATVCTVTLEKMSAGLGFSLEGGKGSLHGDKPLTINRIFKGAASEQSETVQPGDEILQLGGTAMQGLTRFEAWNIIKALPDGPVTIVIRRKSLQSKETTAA
GRIP2_6, Q9C0E4, sequence (Q9C0E4 648-740): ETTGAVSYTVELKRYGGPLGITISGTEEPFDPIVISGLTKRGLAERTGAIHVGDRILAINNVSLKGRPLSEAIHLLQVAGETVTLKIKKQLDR
HTRA1, Q92743, sequence (Q92743 360-477): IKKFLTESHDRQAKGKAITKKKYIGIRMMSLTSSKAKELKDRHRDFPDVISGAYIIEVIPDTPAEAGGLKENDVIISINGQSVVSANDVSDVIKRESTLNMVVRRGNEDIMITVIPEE
SCRIB_3, Q14160, sequence (Q14160 999-1103): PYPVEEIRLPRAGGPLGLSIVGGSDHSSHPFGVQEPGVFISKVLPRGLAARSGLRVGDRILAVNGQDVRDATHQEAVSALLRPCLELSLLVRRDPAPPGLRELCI
SCRIB_2, Q14160, sequence (Q14160 857-960): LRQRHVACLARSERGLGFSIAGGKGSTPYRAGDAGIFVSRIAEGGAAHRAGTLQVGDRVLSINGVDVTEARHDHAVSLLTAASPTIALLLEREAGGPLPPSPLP

FVHPILQSAV [PRKCA, P17252]
pKd (APBA2_1, Q99767; [1]): below the threshold | pKd (APBA2_2, Q99767; [1]): below the threshold | pKd (ARHGEF11, O15085; [1]): 4.17 | pKd (DFNB31_2, Q9P202; [1]): below the threshold | pKd (DLG1_1, Q12959; [1]): 3.81 | pKd (DLG5_1, Q8TDM6; [1]): below the threshold | pKd (DVL3, Q92997; [1]): below the threshold | pKd (GRASP, Q7Z6J2; [1]): 5.13 | pKd (GRIP2_3, Q9C0E4; [1]): below the threshold | pKd (GRIP2_6, Q9C0E4; [1]): below the threshold | pKd (HTRA1, Q92743; [1]): below the threshold | pKd (IL16_3, Q14005; [1]): below the threshold | pKd (IL16_4, Q14005; [1]): below the threshold | pKd (LIMK2, P53671; [1]): below the threshold | pKd (LNX2_3, Q8N448; [1]): below the threshold | pKd (MPDZ_10, O75970; [1]): below the threshold | pKd (MPP6, Q9NZW5; [1]): below the threshold | pKd (NHERF4_1, Q86UT5-2; [1]): 3.78 | pKd (PDZD2_2, O15018; [1]): 5.1 | pKd (RAPGEF6, Q8TEU7; [1]): below the threshold | pKd (SCRIB_2, Q14160; [1]): 4.29 | pKd (SCRIB_3, Q14160; [1]): 4.3 | pKd (SNTB1, Q13884; [1]): 4.32 | pKd (SNX27, Q96L92; [1]): 4.68 | pKd (TJP1_2, Q07157; [1]): below the threshold | pKd (TJP2_1, Q9UDY2; [1]): below the threshold

SRRPRTETQV [HPV31-E6, P17386]
pKd (APBA2_1, Q99767; [2]): below the threshold | pKd (APBA2_2, Q99767; [2]): below the threshold | pKd (ARHGEF11, O15085; [2]): 3.58 | pKd (DFNB31_2, Q9P202; [2]): below the threshold | pKd (DLG1_1, Q12959; [2]): 5.16 | pKd (DLG5_1, Q8TDM6; [2]): below the threshold | pKd (DVL3, Q92997; [2]): below the threshold | pKd (GRASP, Q7Z6J2; [2]): below the threshold | pKd (GRIP2_3, Q9C0E4; [2]): below the threshold | pKd (GRIP2_6, Q9C0E4; [2]): below the threshold | pKd (HTRA1, Q92743; [2]): below the threshold | pKd (IL16_3, Q14005; [2]): below the threshold | pKd (IL16_4, Q14005; [2]): below the threshold | pKd (LIMK2, P53671; [2]): below the threshold | pKd (LNX2_3, Q8N448; [2]): below the threshold | pKd (MPDZ_10, O75970; [2]): below the threshold | pKd (MPP6, Q9NZW5; [2]): below the threshold | pKd (NHERF4_1, Q86UT5-2; [2]): below the threshold | pKd (PDZD2_2, O15018; [2]): 3.7 | pKd (RAPGEF6, Q8TEU7; [2]): below the threshold | pKd (SCRIB_2, Q14160; [2]): 4.38 | pKd (SCRIB_3, Q14160; [2]): 4.56 | pKd (SNTB1, Q13884; [2]): 4.15 | pKd (SNX27, Q96L92; [2]): 4.64 | pKd (TJP1_2, Q07157; [2]): below the threshold | pKd (TJP2_1, Q9UDY2; [2]): 3.66

QFQYAKESYI [TAGAP, Q8N103]
pKd (APBA2_1, Q99767; [2]): below the threshold | pKd (APBA2_2, Q99767; [2]): below the threshold | pKd (ARHGEF11, O15085; [2]): below the threshold | pKd (DFNB31_2, Q9P202; [2]): 4.74 | pKd (DLG1_1, Q12959; [2]): 4.16 | pKd (DLG5_1, Q8TDM6; [2]): below the threshold | pKd (DVL3, Q92997; [2]): below the threshold | pKd (GRASP, Q7Z6J2; [2]): below the threshold | pKd (GRIP2_3, Q9C0E4; [2]): below the threshold | pKd (GRIP2_6, Q9C0E4; [2]): below the threshold | pKd (HTRA1, Q92743; [2]): 4.03 | pKd (IL16_3, Q14005; [2]): below the threshold | pKd (IL16_4, Q14005; [2]): below the threshold | pKd (LIMK2, P53671; [2]): below the threshold | pKd (LNX2_3, Q8N448; [2]): below the threshold | pKd (MPDZ_10, O75970; [2]): below the threshold | pKd (MPP6, Q9NZW5; [2]): below the threshold | pKd (NHERF4_1, Q86UT5-2; [2]): below the threshold | pKd (PDZD2_2, O15018; [2]): 5.04 | pKd (RAPGEF6, Q8TEU7; [2]): below the threshold | pKd (SCRIB_2, Q14160; [2]): 3.56 | pKd (SCRIB_3, Q14160; [2]): 4.67 | pKd (SNTB1, Q13884; [2]): 4.92 | pKd (SNX27, Q96L92; [2]): 3.75 | pKd (TJP1_2, Q07157; [2]): below the threshold | pKd (TJP2_1, Q9UDY2; [2]): 4.43
